Reference: IntAct's records for PubMed 24290140

B1: Four and a half LIM domains protein 1 (Mus musculus), P97447-2 (parent)
chain: MSEKFDCHYCRDPLQGKKYVQKDGRHCCLKCFDKFCANTCVDCRKPISADAKEVHYKNRYWHDNCFRCAKCLHPLASETFVSKDGKILCNKCATREDSPRCKGCFKAIVAGDQNVEYKGTVWHKDCFTCSNCKQVIGTGSFFPKGEDFYCVTCHETKFAKHCVKCNKGLVKAPVWWPMKDNPGTTTASTAKNAP

Variants of: B1
Conditions: with suh_mouse Rbpj

Row | effect of a mutation on the interaction | Variant
1 | disrupting interaction strength | W175A;W176A
